T1: EsCas13d, nuclease-dead (Eubacterium siraeum, UniProt B0MS50, R295A;H300A;R849A;H854A)
T1 sequence: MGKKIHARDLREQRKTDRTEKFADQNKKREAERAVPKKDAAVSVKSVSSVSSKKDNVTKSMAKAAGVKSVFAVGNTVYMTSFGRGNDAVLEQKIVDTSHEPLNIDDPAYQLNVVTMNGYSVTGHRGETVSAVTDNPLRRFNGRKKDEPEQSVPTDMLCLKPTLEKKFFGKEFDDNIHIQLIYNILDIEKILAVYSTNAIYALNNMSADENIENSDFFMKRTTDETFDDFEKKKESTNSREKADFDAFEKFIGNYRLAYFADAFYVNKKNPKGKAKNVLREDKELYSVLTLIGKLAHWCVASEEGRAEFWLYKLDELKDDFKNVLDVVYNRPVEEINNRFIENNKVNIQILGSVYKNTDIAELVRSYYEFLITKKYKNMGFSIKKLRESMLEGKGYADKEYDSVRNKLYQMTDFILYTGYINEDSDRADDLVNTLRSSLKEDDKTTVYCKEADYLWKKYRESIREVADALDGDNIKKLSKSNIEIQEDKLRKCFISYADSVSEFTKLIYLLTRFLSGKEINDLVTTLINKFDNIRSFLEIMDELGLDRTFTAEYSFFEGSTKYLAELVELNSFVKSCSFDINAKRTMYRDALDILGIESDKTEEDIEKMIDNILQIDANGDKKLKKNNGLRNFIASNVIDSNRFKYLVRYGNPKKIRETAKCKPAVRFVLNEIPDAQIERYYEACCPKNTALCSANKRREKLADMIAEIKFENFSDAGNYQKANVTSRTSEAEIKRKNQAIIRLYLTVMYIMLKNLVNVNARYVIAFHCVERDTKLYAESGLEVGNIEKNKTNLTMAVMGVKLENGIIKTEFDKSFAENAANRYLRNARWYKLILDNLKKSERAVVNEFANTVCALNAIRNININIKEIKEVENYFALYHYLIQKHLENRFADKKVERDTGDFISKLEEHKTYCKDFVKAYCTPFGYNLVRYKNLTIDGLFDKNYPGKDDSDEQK


Biological target: T1, EsCas13d, nuclease-dead
Assay: crRNA (strand 1, pre-loaded); Mg2+; 40 mM Tris-HCl pH 7.5, 150 mM NaCl, 6 mM MgCl2, 1 mM DTT, 0.1% Tween-20, 0.2 mg/ml BSA; 25 C; 10 min per concentration, then washed
Conditions: tags: His6-TwinStrep-SUMO cleaved; N-terminal SNAP kept (SNAP-Surface 488); label: 3' end held by stalled T7 RNA polymerase

Row | Binder | Kd [nM]
1 | target 1 complement block 3-9 (mixed) RNA 1: CACCCGUGCAAAAAUGCAGGGGUCUAAAACUGAGCGGAUAACCUCUCUAUGG RNA 2: GGGAAUGGAUCCACAUCUACGAAUUCGUACCAUAGAGAGGUUUAGGCGACACCGAGAUCGGAAGAGCACACGU | 8.8 ± 0.4
2 | target 1 insC 3' of 16,insA 3' of 8 (mixed) RNA 1: CACCCGUGCAAAAAUGCAGGGGUCUAAAACUGAGCGGAUAACCUCUCUAUGG RNA 2: GGGAAUGGAUCCACAUCUACGAAUUCGUACCAUAGACGAGGUUAUACCGCUCACCGAGAUCGGAAGAGCACACGU | 56 ± 12
3 | target 1 MT 5'PFS UAG 3'PFS AAG (mixed) RNA 1: CACCCGUGCAAAAAUGCAGGGGUCUAAAACUGAGCGGAUAACCUCUCUAUGG RNA 2: GGGAAUGGAUCCACAUCUACGAAUUCUAGCCAUAGAGAGGUUAUCCGCUCAAAGAGAUCGGAAGAGCACACGU | 45.5 ± 13
4 | target 1 MT 5'PFS AAG 3'PFS UUC (mixed) RNA 1: CACCCGUGCAAAAAUGCAGGGGUCUAAAACUGAGCGGAUAACCUCUCUAUGG RNA 2: GGGAAUGGAUCCACAUCUACGAAUUCAAGCCAUAGAGAGGUUAUCCGCUCAUUCAGAUCGGAAGAGCACACGU | 16 ± 6
5 | target 1 MT 5'PFS GGG 3'PFS UUA (mixed) RNA 1: CACCCGUGCAAAAAUGCAGGGGUCUAAAACUGAGCGGAUAACCUCUCUAUGG RNA 2: GGGAAUGGAUCCACAUCUACGAAUUCGGGCCAUAGAGAGGUUAUCCGCUCAUUAAGAUCGGAAGAGCACACGU | 16.8 ± 2.55
6 | target 1 insA 3' of 17,insA 3' of 4 (mixed) RNA 1: CACCCGUGCAAAAAUGCAGGGGUCUAAAACUGAGCGGAUAACCUCUCUAUGG RNA 2: GGGAAUGGAUCCACAUCUACGAAUUCGUACCAUAGAAGAGGUUAUCCGCAUCACCGAGAUCGGAAGAGCACACGU | 10 ± 0.7
7 | target 1 MT 5'PFS GCA 3'PFS UUG (mixed) RNA 1: CACCCGUGCAAAAAUGCAGGGGUCUAAAACUGAGCGGAUAACCUCUCUAUGG RNA 2: GGGAAUGGAUCCACAUCUACGAAUUCGCACCAUAGAGAGGUUAUCCGCUCAUUGAGAUCGGAAGAGCACACGU | 5.14 ± 0.38
8 | target 1 del1 (mixed) RNA 1: CACCCGUGCAAAAAUGCAGGGGUCUAAAACUGAGCGGAUAACCUCUCUAUGG RNA 2: GGGAAUGGAUCCACAUCUACGAAUUCGUACCAUAGAGAGGUUAUCCGCUCCCGAGAUCGGAAGAGCACACGU | 39 ± 9
9 | target 1 MT 5'PFS GGG 3'PFS CAC (mixed) RNA 1: CACCCGUGCAAAAAUGCAGGGGUCUAAAACUGAGCGGAUAACCUCUCUAUGG RNA 2: GGGAAUGGAUCCACAUCUACGAAUUCGGGCCAUAGAGAGGUUAUCCGCUCACACAGAUCGGAAGAGCACACGU | ~55.5
10 | target 1 U10A,G15C (mixed) RNA 1: CACCCGUGCAAAAAUGCAGGGGUCUAAAACUGAGCGGAUAACCUCUCUAUGG RNA 2: GGGAAUGGAUCCACAUCUACGAAUUCGUACCAUAGACAGGUAAUCCGCUCACCGAGAUCGGAAGAGCACACGU | 98 ± 17
11 | target 1 MT 5'PFS GGG 3'PFS UUC (mixed) RNA 1: CACCCGUGCAAAAAUGCAGGGGUCUAAAACUGAGCGGAUAACCUCUCUAUGG RNA 2: GGGAAUGGAUCCACAUCUACGAAUUCGGGCCAUAGAGAGGUUAUCCGCUCAUUCAGAUCGGAAGAGCACACGU | 16.4 ± 1.95
12 | target 1 MT 5'PFS CCU 3'PFS AUC (mixed) RNA 1: CACCCGUGCAAAAAUGCAGGGGUCUAAAACUGAGCGGAUAACCUCUCUAUGG RNA 2: GGGAAUGGAUCCACAUCUACGAAUUCCCUCCAUAGAGAGGUUAUCCGCUCAAUCAGAUCGGAAGAGCACACGU | 21 ± 8
13 | target 1 MT 5'PFS UCG 3'PFS UUU (mixed) RNA 1: CACCCGUGCAAAAAUGCAGGGGUCUAAAACUGAGCGGAUAACCUCUCUAUGG RNA 2: GGGAAUGGAUCCACAUCUACGAAUUCUCGCCAUAGAGAGGUUAUCCGCUCAUUUAGAUCGGAAGAGCACACGU | 24 ± 5
14 | target 1 MT 5'PFS GCU 3'PFS AGA (mixed) RNA 1: CACCCGUGCAAAAAUGCAGGGGUCUAAAACUGAGCGGAUAACCUCUCUAUGG RNA 2: GGGAAUGGAUCCACAUCUACGAAUUCGCUCCAUAGAGAGGUUAUCCGCUCAAGAAGAUCGGAAGAGCACACGU | 56 ± 16.5
15 | target 1 MT 5'PFS GGG 3'PFS CAA (mixed) RNA 1: CACCCGUGCAAAAAUGCAGGGGUCUAAAACUGAGCGGAUAACCUCUCUAUGG RNA 2: GGGAAUGGAUCCACAUCUACGAAUUCGGGCCAUAGAGAGGUUAUCCGCUCACAAAGAUCGGAAGAGCACACGU | 50.5 ± 21.5
16 | target 1 MT 5'PFS GGG 3'PFS CAG (mixed) RNA 1: CACCCGUGCAAAAAUGCAGGGGUCUAAAACUGAGCGGAUAACCUCUCUAUGG RNA 2: GGGAAUGGAUCCACAUCUACGAAUUCGGGCCAUAGAGAGGUUAUCCGCUCACAGAGAUCGGAAGAGCACACGU | 32 ± 5.5
17 | target 1 MT 5'PFS CCU 3'PFS AUA (mixed) RNA 1: CACCCGUGCAAAAAUGCAGGGGUCUAAAACUGAGCGGAUAACCUCUCUAUGG RNA 2: GGGAAUGGAUCCACAUCUACGAAUUCCCUCCAUAGAGAGGUUAUCCGCUCAAUAAGAUCGGAAGAGCACACGU | 21 ± 5
18 | target 1 MT 5'PFS UAG 3'PFS AAC (mixed) RNA 1: CACCCGUGCAAAAAUGCAGGGGUCUAAAACUGAGCGGAUAACCUCUCUAUGG RNA 2: GGGAAUGGAUCCACAUCUACGAAUUCUAGCCAUAGAGAGGUUAUCCGCUCAAACAGAUCGGAAGAGCACACGU | 34 ± 6
19 | target 1 MT 5'PFS GCU 3'PFS AGC (mixed) RNA 1: CACCCGUGCAAAAAUGCAGGGGUCUAAAACUGAGCGGAUAACCUCUCUAUGG RNA 2: GGGAAUGGAUCCACAUCUACGAAUUCGCUCCAUAGAGAGGUUAUCCGCUCAAGCAGAUCGGAAGAGCACACGU | 36 ± 7
20 | target 1 MT 5'PFS UCG 3'PFS CUA (mixed) RNA 1: CACCCGUGCAAAAAUGCAGGGGUCUAAAACUGAGCGGAUAACCUCUCUAUGG RNA 2: GGGAAUGGAUCCACAUCUACGAAUUCUCGCCAUAGAGAGGUUAUCCGCUCACUAAGAUCGGAAGAGCACACGU | 29 ± 7
21 | target 1 MT 5'PFS AGC 3'PFS AAA (mixed) RNA 1: CACCCGUGCAAAAAUGCAGGGGUCUAAAACUGAGCGGAUAACCUCUCUAUGG RNA 2: GGGAAUGGAUCCACAUCUACGAAUUCAGCCCAUAGAGAGGUUAUCCGCUCAAAAAGAUCGGAAGAGCACACGU | ~52
22 | target 1 MT 5'PFS AAG 3'PFS UUG (mixed) RNA 1: CACCCGUGCAAAAAUGCAGGGGUCUAAAACUGAGCGGAUAACCUCUCUAUGG RNA 2: GGGAAUGGAUCCACAUCUACGAAUUCAAGCCAUAGAGAGGUUAUCCGCUCAUUGAGAUCGGAAGAGCACACGU | 13.5 ± 2
23 | target 1 A1C,C4A (mixed) RNA 1: CACCCGUGCAAAAAUGCAGGGGUCUAAAACUGAGCGGAUAACCUCUCUAUGG RNA 2: GGGAAUGGAUCCACAUCUACGAAUUCGUACCAUAGAGAGGUUAUCCGAUCCCCGAGAUCGGAAGAGCACACGU | 7.5 ± 1
24 | target 1 MT 5'PFS GGG 3'PFS CAU (mixed) RNA 1: CACCCGUGCAAAAAUGCAGGGGUCUAAAACUGAGCGGAUAACCUCUCUAUGG RNA 2: GGGAAUGGAUCCACAUCUACGAAUUCGGGCCAUAGAGAGGUUAUCCGCUCACAUAGAUCGGAAGAGCACACGU | 32 ± 12
25 | target 1 MT 5'PFS GGG 3'PFS UUU (mixed) RNA 1: CACCCGUGCAAAAAUGCAGGGGUCUAAAACUGAGCGGAUAACCUCUCUAUGG RNA 2: GGGAAUGGAUCCACAUCUACGAAUUCGGGCCAUAGAGAGGUUAUCCGCUCAUUUAGAUCGGAAGAGCACACGU | 14.7 ± 2.05
26 | target 1 MT 5'PFS GCA 3'PFS UUU (mixed) RNA 1: CACCCGUGCAAAAAUGCAGGGGUCUAAAACUGAGCGGAUAACCUCUCUAUGG RNA 2: GGGAAUGGAUCCACAUCUACGAAUUCGCACCAUAGAGAGGUUAUCCGCUCAUUUAGAUCGGAAGAGCACACGU | 11 ± 2.4
27 | target 1 MT 5'PFS GGG 3'PFS UUG (mixed) RNA 1: CACCCGUGCAAAAAUGCAGGGGUCUAAAACUGAGCGGAUAACCUCUCUAUGG RNA 2: GGGAAUGGAUCCACAUCUACGAAUUCGGGCCAUAGAGAGGUUAUCCGCUCAUUGAGAUCGGAAGAGCACACGU | 7.3 ± 0.45
28 | target 1 MT 5'PFS UAG 3'PFS AAA (mixed) RNA 1: CACCCGUGCAAAAAUGCAGGGGUCUAAAACUGAGCGGAUAACCUCUCUAUGG RNA 2: GGGAAUGGAUCCACAUCUACGAAUUCUAGCCAUAGAGAGGUUAUCCGCUCAAAAAGAUCGGAAGAGCACACGU | 34 ± 7

Source: PMC10786891, “Massively parallel profiling of RNA-targeting CRISPR-Cas13d”
